These results are taken from patent publication US20080175935A1, “Method to Treat Skin Conditions with Narcissus Tazetta Bulb Extract” (NuSkin International, Inc., priority 2004, published 2008).

For the assay, the system named is arNOX. Description: arNOX assay: ferricytochrome c reduction (superoxide production) in sera. The following applies: for Rate of reduction of ferricytochrome c, +Proteinase K: pooled serum. In kind it is biochemical, human. The source says:
Reduction of ferric cytochrome c by superoxide was employed as a standard measure of superoxide formation (Mayo, L. A. and Cumutte, J. (1990) Meth. Enzyme. 186, 567-575. 7. Butler, J, Koppenol, W. H. and Margollash, E. (1982) J. Biol. Chem. 257, 10747).
Assays of ferric cytochrome c reduction in sera compared 53 samples from young (20 to 40 y) and 65 samples from aged (80 to 100) individuals. […]
Measurement of arNOX activity based on ferricytochrome c reduction as a measure of superoxide production were taken. The rate of reduction of ferricytochrome c was determined from the increase in absorbance at 550 nm with 540 nm as reference. This is a widely accepted method when coupled to superoxide dismutase inhibition for the measurement of superoxide generation. The assay consists of 150 μl (2 mg/ml) of oxidized ferricytochrome c solution and 150 μl serum or 40 μl buffy coats in PBSG buffer (8.06 g NaCl, 0.2 g KCl, 0.18 g Na2HPO4, 0.26 g KH2PO4, 0.13 g CaCl2, 0.1 g MgCl2, 1.35 g glucose dissolved in 1000 ml deionized water, adjusted to pH 7.4, filtered and stored at 4° C.). Rates were determined using a SLM Aminco DW-2000 spectrophotometer (Milton Roy, Rochester, N.Y., USA) in the dual wave length mode of operation with continuous measurements over 1 min every 1.5 min. After 45 min, test compound was added and the reaction was continued for 45 min. A millimolar extinction coefficient of 19.1 cm^−1 was used for reduced ferricytochrome c. (D. M. Morré, F. Guo and D. J. Morré, 2003, Mol. Cell. Biochem. 254: […]).

B1: Proteinase K: protease used to digest sera (protein, UniProt P06873 106-384, looked up)
Proteinase K: AAQTNAPWGLARISSTSPGTSTYYYDESAGQGSCVYVIDTGIEASHPEFEGRAQMVKTYYYSSRDGNGHGTHCAGTVGSRTYGVAKKTQLFGVKVLDDNGSGQYSTIIAGMDFVASDKNNRNCPKGVVASLSLGGGYSSSVNSAAARLQSSGVMVAVAAGNNNADARNYSPASEPSVCTVGASDRYDRRSSFSNYGSVLDIFGPGTSILSTWIGGSTRSISGTSMATPHVAGLAAYLMTLGKTTAASACRYIADTANKGDLSNIPFGTVNLLAYNNYQA
For B1, the “Rate of reduction of ferricytochrome c, +Proteinase K” value is given as 0.27 ± 0.16 nmoles min^−1 mi serum^−1 (35-45 males); 1.0 ± 0.18 nmoles min^−1 mi serum^−1 (75-85 females); 0.72 ± 0.14 nmoles min^−1 mi serum^−1 (75-85 males); 0.26 ± 0.17 nmoles min^−1 mi serum^−1 (<35 y females); 0.94 ± 0.24 nmoles min^−1 mi serum^−1 (>90 females). The “change in the rate of arNOX following proteinase K digestion” value (sera) is on record as “no significant decrease”. Besides, the “Superoxide production (reduction of ferricytochrome c), without superoxide dismutase” value (sera of aged (80-98 y) individuals, after proteinase K, n = 10) is given as 0.6 ± 0.2 Nmoles/min/mi/sera.
